Data on one substance can be found in article PMC2172679.

The target in the test is p150^Glued subunit of dynactin (endogenous in melanophore extracts) (Xenopus laevis (endogenous in melanophores)) (UniProt Q6PCJ1). Description: co-IP.
UniProt Q6PCJ1, sequence (Q6PCJ1 whole entry): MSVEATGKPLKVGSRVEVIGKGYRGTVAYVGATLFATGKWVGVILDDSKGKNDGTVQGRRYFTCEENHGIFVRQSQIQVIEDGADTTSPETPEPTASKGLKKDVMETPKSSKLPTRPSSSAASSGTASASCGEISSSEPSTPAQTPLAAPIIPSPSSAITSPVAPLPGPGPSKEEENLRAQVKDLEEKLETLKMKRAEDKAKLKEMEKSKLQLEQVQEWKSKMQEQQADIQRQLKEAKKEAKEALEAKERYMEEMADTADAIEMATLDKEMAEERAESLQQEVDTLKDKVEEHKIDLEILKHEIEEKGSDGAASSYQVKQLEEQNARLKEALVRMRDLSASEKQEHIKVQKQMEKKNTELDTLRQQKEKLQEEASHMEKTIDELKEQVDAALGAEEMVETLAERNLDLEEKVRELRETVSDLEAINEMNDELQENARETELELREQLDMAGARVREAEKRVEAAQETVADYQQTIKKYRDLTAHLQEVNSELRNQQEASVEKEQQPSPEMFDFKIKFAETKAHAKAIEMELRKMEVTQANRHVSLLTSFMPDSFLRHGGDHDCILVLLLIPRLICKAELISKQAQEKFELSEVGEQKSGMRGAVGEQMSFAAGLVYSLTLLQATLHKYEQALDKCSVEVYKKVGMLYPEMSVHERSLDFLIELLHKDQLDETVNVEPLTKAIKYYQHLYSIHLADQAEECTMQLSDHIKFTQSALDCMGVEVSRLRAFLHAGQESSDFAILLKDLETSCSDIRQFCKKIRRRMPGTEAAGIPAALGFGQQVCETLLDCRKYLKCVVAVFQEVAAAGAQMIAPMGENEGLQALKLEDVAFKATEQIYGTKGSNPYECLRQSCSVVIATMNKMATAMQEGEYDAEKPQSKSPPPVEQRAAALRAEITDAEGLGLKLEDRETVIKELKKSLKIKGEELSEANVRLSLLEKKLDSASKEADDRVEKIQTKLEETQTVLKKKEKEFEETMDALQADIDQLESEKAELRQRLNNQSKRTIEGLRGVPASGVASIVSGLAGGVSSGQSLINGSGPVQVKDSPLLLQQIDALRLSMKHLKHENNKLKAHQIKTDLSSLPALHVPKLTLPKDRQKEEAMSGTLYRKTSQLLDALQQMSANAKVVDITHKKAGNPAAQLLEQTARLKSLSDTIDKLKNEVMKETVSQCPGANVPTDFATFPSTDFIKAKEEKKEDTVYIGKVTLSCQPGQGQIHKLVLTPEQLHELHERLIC

Take “kinesin II (Xenopus, endogenous in melanophore extracts) (complex)”: the percent of the total pool co-precipitated turned out to be 1%.
